Test results from patent US20180009908.

What was measured:
[1] = biological target: matuzumab HC_20.8.37_B + matuzumab LC (IgG1); assay: LCMS, IgG1 BsAb co-expression; HCA/HCB heterodimer carrying two LC2
[2] = biological target: matuzumab HC_20.8_B + matuzumab LC (IgG1); assay: as above
[3] = biological target: matuzumab HC_20.8.34_B + matuzumab LC (IgG1); assay: as above
[4] = biological target: matuzumab HC_20.8.37_B + matuzumab LC (IgG1); assay: LCMS, IgG1 BsAb co-expression in HEK293F
[5] = biological target: matuzumab HC_20.8_B + matuzumab LC (IgG1); assay: LCMS, IgG1 BsAb co-expression in HEK293F
[6] = biological target: matuzumab HC_20.8.34_B + matuzumab LC (IgG1); assay: LCMS, IgG1 BsAb co-expression in HEK293F
[7] = biological target: matuzumab HC_20.8.37_B + matuzumab LC (IgG1); assay: LCMS, IgG1 BsAb co-expression; HCA/HCB heterodimer carrying two LC1
[8] = biological target: matuzumab HC_20.8_B + matuzumab LC (IgG1); assay: as above
[9] = biological target: matuzumab HC_20.8.34_B + matuzumab LC (IgG1); assay: as above
[10] = biological target: T1, HA-tagged human IgG1 Fc portion with CH3 mutations E356G, E357D, S364Q, Y407A; assay: UPLC SEC of protein G-purified one-arm antibody co-expressed in HEK293F
T1 chain: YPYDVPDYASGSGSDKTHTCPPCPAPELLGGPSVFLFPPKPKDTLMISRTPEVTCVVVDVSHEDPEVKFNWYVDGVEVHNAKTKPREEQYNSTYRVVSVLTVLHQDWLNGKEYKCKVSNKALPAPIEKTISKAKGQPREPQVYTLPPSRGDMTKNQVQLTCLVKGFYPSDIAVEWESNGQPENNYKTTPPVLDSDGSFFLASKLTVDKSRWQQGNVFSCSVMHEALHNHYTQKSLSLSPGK

[11] = biological target: T2, HA-tagged human IgG1 Fc portion with CH3 mutations E357D, S364Q, Y407A; assay: as above
T2 chain: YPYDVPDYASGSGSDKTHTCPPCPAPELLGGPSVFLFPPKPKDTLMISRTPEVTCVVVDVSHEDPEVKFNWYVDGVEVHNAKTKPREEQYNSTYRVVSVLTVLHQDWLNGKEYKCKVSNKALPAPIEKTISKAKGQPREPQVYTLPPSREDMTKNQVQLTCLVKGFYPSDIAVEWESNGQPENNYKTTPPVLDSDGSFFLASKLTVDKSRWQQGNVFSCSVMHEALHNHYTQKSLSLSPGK

[12] = biological target: T3, HA-tagged human IgG1 Fc portion with CH3 mutations E357D, S364R, Y407A; assay: as above
T3 chain: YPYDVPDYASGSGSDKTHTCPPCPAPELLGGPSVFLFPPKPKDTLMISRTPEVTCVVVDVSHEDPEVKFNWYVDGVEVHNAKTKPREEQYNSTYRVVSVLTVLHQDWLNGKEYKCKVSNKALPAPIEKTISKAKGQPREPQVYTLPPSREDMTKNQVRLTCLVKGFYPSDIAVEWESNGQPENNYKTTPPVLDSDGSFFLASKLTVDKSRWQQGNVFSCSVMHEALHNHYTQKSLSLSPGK

[13] = LCMS, IgG4 BsAb co-expression; HCA homodimer species
[14] = biological target: matuzumab HC_20.8.34_B + matuzumab LC (IgG4 HC backbone); assay: LCMS, IgG4 BsAb co-expression; HCA/HCB heterodimer carrying two LC1
[15] = biological target: matuzumab HC_20.8.34_B + matuzumab LC (IgG4 HC backbone); assay: LCMS, IgG4 BsAb co-expression; HCA/HCB heterodimer carrying two LC2
[16] = biological target: matuzumab HC_20.8.34_B + matuzumab LC (IgG4 HC backbone); assay: LCMS, IgG4 BsAb co-expression in HEK293F
[17] = biological target: matuzumab HC_7.8.60_B + matuzumab LC (IgG4 HC backbone); assay: LCMS, IgG4 BsAb co-expression; HCA/HCB heterodimer carrying two LC1
[18] = biological target: matuzumab HC_7.8.60_B + matuzumab LC (IgG4 HC backbone); assay: LCMS, IgG4 BsAb co-expression; HCA/HCB heterodimer carrying two LC2
[19] = biological target: matuzumab HC_7.8.60_B + matuzumab LC (IgG4 HC backbone); assay: LCMS, IgG4 BsAb co-expression in HEK293F

B1: MetMAb HC_20.8.26_A + MetMAb LC (IgG1) (protein)
chain 1: EVQLVESGGGLVQPGGSLRLSCAASGYTFTSYWLHWVRKAPGKGLEWVGMIDPSNSDTRFNPEFKDRFTISADTSKNTAYLQMNSLRAEDTAVYYCATYRSYVTPLDYWGQGTLVTVSSASTKGPSVFPLAPSSKSTSGGTAALGCLVKDYFPEPVTVSWNSGALTSGVATGPAVLQSSGLYSLSSVVTVPSSSLGTQTYICNVNHKPSNTKVDKKVEPKSCDKTHTCPPCPAPELLGGPSVFLFPPKPKDTLMISRTPEVTCVVVDVSHEDPEVKFNWYVDGVEVHNAKTKPREEQYQSTYRVVSVLTVLHQDWLNGKEYKCKVSNKALPAPIEKTISKAKGQPREPQVSTLPPSREEMTKNQVSLMCLVYGFYPSDIAVEWESNGQPENNYKTTPPVLDSDGSFFLYSVLTVDKSRWQQGNVFSCSVMHEALHNHYTQKSLSLSPGK
chain 2: RIQMTQSPSSLSASVGDRVTITCKSSQSLLYTSSQKNYLAWYQDKPGKAPKLLIYWASTRESGVPSRFSGSGSGTDFTLTISSLQPEDFATYYCQQYYAYPWTFGQGTKVEIKGQPKAAPSVTLFPPSSEELQANKATLVCYISDFYPGAVTVAWKADSSPVKAGVETTTPSKQSNNKYAAWSYLSLTPEQWKSHRSYSCQVTHEGSTVEKTVAPTEC
B1 gave a % AB (2x LC2) (incorrect assembly) [1] of 20.9%, a % AB (2x LC2) (incorrect assembly) [2] of 33.3% and a % AB (2x LC2) (incorrect assembly) [3] of 4.2%. For the same protein, the % AB (LC1/LC2) (correct IgG BsAb assembly) [4] was 79.1%, the % AB (LC1/LC2) (correct IgG BsAb assembly) [5] was 58.6% and the % AB (LC1/LC2) (correct IgG BsAb assembly) [6] was 95.8%. The % AB (2x LC1) (incorrect assembly) [7] was 0%, the % AB (2x LC1) (incorrect assembly) [8] was 0% and the % AB (2x LC1) (incorrect assembly) [9] was 0%.

B2: anti-c-Met 5D5 VH-human IgG1 HC with CH3 mutations Y349S, K370Y, T366M, K409V, with 5D5 light chain (protein)
chain 1: EVQLVESGGGLVQPGGSLRLSCAASGYTFTSYWLHWVRQAPGKGLEWVGMIDPSNSDTRFNPNFKDRFTISADTSKNTAYLQMNSLRAEDTAVYYCATYRSYVTPLDYWGQGTLVTVSSASTKGPSVFPLAPSSKSTSGGTAALGCLVKDYFPEPVTVSWNSGALTSGVHTFPAVLQSSGLYSLSSVVTVPSSSLGTQTYICNVNHKPSNTKVDKRVEPKSCDKTHTCPPCPAPELLGGPSVFLFPPKPKDTLMISRTPEVTCVVVDVSHEDPEVKFNWYVDGVEVHNAKTKPREEQYNSTYRVVSVLTVLHQDWLNGKEYKCKVSNKALPAPIEKTISKAKGQPREPQVSTLPPSREEMTKNQVSLMCLVYGFYPSDIAVEWESNGQPENNYKTTPPVLDSDGSFFLYSVLTVDKSRWQQGNVFSCSVMHEALHNHYTQKSLSLSPGK
chain 2: DIQMTQSPSSLSASVGDRVTITCKSSQSLLYTSSQKNYLAWYQQKPGKAPKLLIYWASTRESGVPSRFSGSGSGTDFTLTISSLQPEDFATYYCQQYYAYPWTFGQGTKVEIKRTVAAPSVFIFPPSDEQLKSGTASVVCLLNNFYPREAKVQWKVDNALQSGNSQESVTEQDSKDSTYSLSSTLTLSKADYEKHKVYACEVTHQGLSSPVTKSFNRGEC
B2 showed a % heterodimer (UPLC) [10] of 83.8%, a % heterodimer (UPLC) [11] of 86% and a % heterodimer (UPLC) [12] of 83.5%.

B3: MetMAb HC_20.8.34_A + MetMAb LC (IgG4 HC backbone) (protein)
chain 1: EVQLVESGGGLVQPGGSLRLSCAASGYTFTSYWLHWVRKAPGKGLEWVGMIDPSNSDTRFNPEFKDRFTISADTSKNTAYLQMNSLRAEDTAVYYCATYRSYVTPLDYWGQGTLVTVSSASTKGPSVFPLAPCSRSTSESTAALGCLVKDYFPEPVTVSWNSGALTSGVATGPAVLQSSGLYSLSSVVTVPSSSLGTKTYTCNVDHKPSNTKVDKRVESKYGPPCPPCPAPEAAGGPSVFLFPPKPKDTLMISRTPEVTCVVVDVSQEDPEVQFNWYVDGVEVHNAKTKPREEQFQSTYRVVSVLTVLHQDWLNGKEYKCKVSNKGLPSSIEKTISKAKGQPREPQVSTLPPSQEEMTKNQVSLMCLVYGFYPSDIAVEWESNGQPENNYKTTPPVLDSDGSFFLYSVLTVDKSRWQEGNVFSCSVMHEALHNHYTQKSLSLSLG
chain 2: RIQMTQSPSSLSASVGDRVTITCKSSQSLLYTSSQKNYLAWYQDKPGKAPKLLIYWASTRESGVPSRFSGSGSGTDFTLTISSLQPEDFATYYCQQYYAYPWTFGQGTKVEIKGQPKAAPSVTLFPPSSEELQANKATLVCYISDFYPGAVTVAWKADSSPVKAGVETTTPSKQSNNKYAAWSYLSLTPEQWKSHRSYSCQVTHEGSTVEKTVAPTEC
In the case of B3, the % AA Homodimer (incorrect assembly) [13] is reported as 0%, the % AB (2x LC1) (incorrect assembly) [14] is reported as 0% and the % AB (2x LC2) (incorrect assembly) [15] is reported as 0%. It also gave a % AB (LC1/LC2) (correct IgG BsAb assembly) [16] of 100%.

B4: anti-c-Met 5D5 VH-human IgG1 HC with CH3 mutations Y349S, K370Y, T366V, K409V, with 5D5 light chain (protein)
chain 1: EVQLVESGGGLVQPGGSLRLSCAASGYTFTSYWLHWVRQAPGKGLEWVGMIDPSNSDTRFNPNFKDRFTISADTSKNTAYLQMNSLRAEDTAVYYCATYRSYVTPLDYWGQGTLVTVSSASTKGPSVFPLAPSSKSTSGGTAALGCLVKDYFPEPVTVSWNSGALTSGVHTFPAVLQSSGLYSLSSVVTVPSSSLGTQTYICNVNHKPSNTKVDKRVEPKSCDKTHTCPPCPAPELLGGPSVFLFPPKPKDTLMISRTPEVTCVVVDVSHEDPEVKFNWYVDGVEVHNAKTKPREEQYNSTYRVVSVLTVLHQDWLNGKEYKCKVSNKALPAPIEKTISKAKGQPREPQVSTLPPSREEMTKNQVSLVCLVYGFYPSDIAVEWESNGQPENNYKTTPPVLDSDGSFFLYSVLTVDKSRWQQGNVFSCSVMHEALHNHYTQKSLSLSPGK
chain 2: DIQMTQSPSSLSASVGDRVTITCKSSQSLLYTSSQKNYLAWYQQKPGKAPKLLIYWASTRESGVPSRFSGSGSGTDFTLTISSLQPEDFATYYCQQYYAYPWTFGQGTKVEIKRTVAAPSVFIFPPSDEQLKSGTASVVCLLNNFYPREAKVQWKVDNALQSGNSQESVTEQDSKDSTYSLSSTLTLSKADYEKHKVYACEVTHQGLSSPVTKSFNRGEC
B4 gave a % heterodimer (UPLC) [10] of 93%, a % heterodimer (UPLC) [11] of 84.9% and a % heterodimer (UPLC) [12] of 86.5%.

B5: MetMAb HC_7.8.60_A + MetMAb LC (IgG4 HC backbone) (protein)
chain 1: EVQLVESGGGLVQPGGSLRLSCAASGYTFTSYWLHWVRKAPGKGLEWVGMIDPSNSDTRFNPEFKDRFTISADTSKNTAYLQMNSLRAEDTAVYYCATYRSYVTPLDYWGQGTLVTVSSASTKGPSVFPLAPCSRSTSESTAALGCLVKDYFPEPVTVSWNSGALTSGVATGPAVLQSSGLYSLSSVVTVPSSSLGTKTYTCNVDHKPSNTKVDKRVESKYGPPCPPCPAPEAAGGPSVFLFPPKPKDTLMISRTPEVTCVVVDVSQEDPEVQFNWYVDGVEVHNAKTKPREEQFQSTYRVVSVLTVLHQDWLNGKEYKCKVSNKGLPSSIEKTISKAKGQPREPQVYTLPPSQEEMTDNQVSLTCLVKGFYPSDIAVEWESNGQPENNYKTTPPVLMSDGSFFLASRLTVDKSRWQEGNVFSCSVMHEALHNHYTQKSLSLSLG
chain 2: RIQMTQSPSSLSASVGDRVTITCKSSQSLLYTSSQKNYLAWYQDKPGKAPKLLIYWASTRESGVPSRFSGSGSGTDFTLTISSLQPEDFATYYCQQYYAYPWTFGQGTKVEIKGQPKAAPSVTLFPPSSEELQANKATLVCYISDFYPGAVTVAWKADSSPVKAGVETTTPSKQSNNKYAAWSYLSLTPEQWKSHRSYSCQVTHEGSTVEKTVAPTEC
Work on B5 yielded a % AA Homodimer (incorrect assembly) [13] of 0%, a % AB (2x LC1) (incorrect assembly) [17] of 0% and a % AB (2x LC2) (incorrect assembly) [18] of 0%. It also gave a % AB (LC1/LC2) (correct IgG BsAb assembly) [19] of 100%.
